Target: GST-p53 C-terminal domain (residues 300–393) (human, UniProt P04637 300-393)
Assay: pull-down

GST-p53 C-terminal domain (residues 300–393), sequence (P04637 300-393): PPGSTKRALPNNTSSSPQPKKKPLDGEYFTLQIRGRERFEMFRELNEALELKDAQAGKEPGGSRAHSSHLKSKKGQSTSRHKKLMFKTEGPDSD

B1: Full-length EBNA3C, in vitro translated, 35S-labelled (natural protein)
chain: MESFEGQGDSRQSPDNERGDNVQTTGEHDQDPGPGPPSSGASERLVPEESYSRDQQPWGQSRGDENRGWMQRIRRRRRRRAALSGHLLDTEDNVPPWLPPHDITPYTARNIRDAACRAVKQSHLQALSNLILDSGLDTQHILCFVMAARQRLQDIRRGPLVAEGGVGWRHWLLTSPSQSWPMGYRTATLRTLTPVPNRVGADSIMLTATFGCQNAARTLNTFSATVWTPPHAGPREQERYAREAEVRFLRGKWQRRYRRIYDLIELCGSLHHIWQNLLQTEENLLDFVRFMGVMSSCNNPAVNYWFHKTIGNFKPYYPWNAPPNENPYHARRGIKEHVIQNAFRKAQIQGLSMLATGGEPRGDATSETSSDEDTGRQGSDVELESSDDELPYIDPNMEPVQQRPVMFVSRVPAKKPRKLPWPTPKTHPVKRTNVKTSDRSDKAEAQSTPERPGPSEQSSVTVEPAHPTPVEMPMVILHQPPPVPKPVPVKPTPPPSRRRRGACVVYDDDVIEVIDVETTEDSSSVSQPNKPHRKHQDGFQRSGRRQKRAAPPTVSPSDTGPPAVGPPAAGPPAAGPPAAGPPAAGPPAAGPPAAGPRILAPLSAGPPAAGPHIVTPPSARPRIMAPPVVRMFMRERQLPQSTGRKPQCFWEMRAGREITQMQQEPSSHLQSATQPTTPRPSWAPSVCALSVMDAGKAQPIESSHLSSMSPTQPISHEEQPRYEDPDAPLDLSLHPDVAAQPAPQAPYQGYQEPPAPQAPYQGYQEPPPPQAPYQGYQEPPAHGLQSSSYPGYAGPWTPRSQHPCYRHPWAPWSQDPVHGHTQGPWDPRAPHLPPQWDGSAGHGQDQVSQFPHLQSETGPPRLQLSLVPLVSSSAPSWSSPQPRAPIRPIPTRFPPPPMPLQDSMAVGCDSSGTACPSMPFASDYSQGAFTPLDINATTPKRPRVEESSHGPARCSQATAEAQEILSDNSEISVFPKDAKQTDYDASTESELD
modifications: 35S methionine label
  fold interaction against the DNA binding domain of p53 (residues 100–300): 1.7 fold

Reference: PMC4287381 (Virology, 2009)
